Laboratory results published in the supplement of paper PMC9170038.

tested on: K4 kissing-loop RNA reporter; test: apparent KD of K4 kissing-loop reporter; higher = weaker reporter binding; settings: Eterna round: R107; input ligand: none
Description: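 RNA-MaP round R107: designed RNA switches with theophylline, tryptophan, arginine or FMN aptamers are transcribed on-chip within common flanks. They are titrated with a labelled K4 kissing-loop RNA reporter in RNA-MaP buffer (100 mM Tris pH 7.5, 80 mM KCl, 4 mM MgCl2), without ligand or with the indicated ligand. Median apparent KD per design.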
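Also: bound reporter read as fluorescence of individual clusters on recovered sequencing chips by microscopy, with normalized cluster intensities fitted with a binding model.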

Row | Sequence | apparent KD of K4 kissing-loop reporter
1 | GAGGCCAAACGGAGUGAUGUUUCGUAUGAUACCAGCAGCGAAAGCUGCCCUUGGCAGCAUGCCACGGCCUCGGCAGGAAACUGCC | 358 nM
2 | UACGCUGCCUGAGGAUAUAGAAACGAGUGAUGUUCGUGGAUAAGAGCCAGUGAUGUUGGGUUAUUUCUAGAAGGCAGGUAAAGUA [Exclusion FMN B GF6] | 102 nM
3 | AACCGAGGUAAUCCACAAUGAUUAGAAGAUACCAGAUAUAUAAAUAUCCCUUGGCAGCUUUGAAUGAGUGAUGUUCAUUUGUCAU [KL-SSTheo-A11] | 159 nM
4 | GUGACACGUGAUGAUACCAGUCCACGGAAGUUCCUUAGUGAUGUUAACCUUGCUUUUUCUGACCCUUGGCAGCAUUAGUUGAGAA [theeternabot_sameState_KL_Theo_B_42] | 204 nM
5 | AGUAUUGAGUCGGCCGCCACUGGUUUAAUGAGUGUCAAUUCUGGAUCAAAGUGAUGUUUUGGAGCUAGGACCGGGACCAUUGUUA [#07 K4 Tryptophan B Exclusion] | 433 nM
6 | UUGGCCCGGCCGGAAGGCCGGGCCUGCGAGCGAGGACCGGUACGGCCGCCACUCGGCGCAGUGAUGUUGCGUGGCCGCAAGGCCG [#2 Exclusion - Tryptophan A Attempt #1 (HarryS)] | 439 nM
7 | AAGAGCUAGGCGGCCGCCACUAGUUGUGAACACAUACAAGCCAGUGAUGUUGGUAUGGUGGACGGUAGGACCGGGCCUAGCUGAA [Exclusion - Tryptophan B (Freestyle 16)] | 224 nM
8 | CAGAUCACAGAGUGAUGUUCUGUGUCCGAAGGAGCGCGCUUCGGCGCAGGUAGGUCGCGGAUACAGUUGACGUACCAUCUAGACA [Arg A Ex t3c] | 583 nM
9 | UCGACAGUGAACGAUACCAGCGUCACGUGGCUGGUGGUCACAUGAGUGAUGUUCAUGUAACGCCCUUGGCAGCGUGCACGUAUCA [KL-XTheo-B8] | 133 nM
10 | ACACUAUCGUCAUAGACGGUAGUGAAAAGUGAGGAUAUGAGUGAUGUUAGAAGGCACUAAGACUGUAUCGAAUAGAUACAGUCAA [FmnA 4 #K4BetweenAptamer #OpenEnded] | 384 nM
11 | GUCCACACUGCAGGAUAUGGAGGAAUAGCGAGGGAGUGUGGAAGCACACCUCUGGCAGUGAUGUUGCCAGAAGGGCGGUGCGGCG [Cemaorar] | 76.4 nM
12 | AGGUCAGCAGGAAGGAGCGCCCUGACAGGUUGCUGCCGUGGGCAGUGAUGUUGCUCAGUCCGGCAGGUAGGUCGCCUGCUGACCU | 153 nM
13 | CGCCGUAAGGCGAGCGCUCCCACUCCGGAAGGAGCGCCCGGAAGGGCAGGUAGGUCGCCGGAGUGAUGUUCCGGUGGAGGGCUCG [#2 Exclusion - Arginine A Attempt #12 (Inspired by Omei)] | 282 nM
14 | AGUCCACUCUAAAGAGUGGACCUAAGGGAUACCAGUGAUGUUGGUCACCCUUGGCAGCCCACUGUCAUCGAUAAAGAUGGCAGGA | 116 nM
15 | AAAAUAAAGCAGUCAAUCGGAGUGAUGUUCCGAGGACCGGUACGGCCGCCACUCGAGAGUCCAAAGGACUCAUGGCGAGACUGCA [#SwitchBubble 17 #K4Early] | 93.2 nM
16 | ACGAUUUACAGAAGGAGCGUGUAUUUAACUACAAUUAUCUUAGCGAGUGAUGUUCGUUUUACACAGGUAGGUCGCUGUAUAUCGA [JR_ExcArginiB_Sub011] | 263 nM
17 | UGUACCGAGUUAGGAUAUGUCGUCGAAAGACGAAAUGGAGUGAUGUUCCUUAAACUGCGAAAGCAGACAGAAGGAACUUGGUACU [FmnBS 29 U11+A75] | 544 nM
18 | GAUGUCUAGAGAUCAUCUAGACACCUAGAUACCAGCAGAUAUAUCUGCCCUUGGCAGCUAGAACCAGUGAUGUUGGUAUAUGCUC [Theo A SS t3] | 307 nM
19 | AGUGUUAGGUUAGAUACCAGCCGUCUGUGGAUAAUCCUCAGACCGCCAGUGAUGUUGGCAGGCCCUUGGCAGCUAACAGGACAGA [Mavebius] | 272 nM
20 | UUUGGUUUCUCGGCCGCCACUCGUUGGUUAUGGGCCUCAGGGAUAUAGUGAUGUUAUGUAAAGAAGAGGACCGGGAGAAGGAAGG [ExTryptoB.Do] | 225 nM
21 | CUAGGCCCUCGGCGGGACAUUGCGUGGGAAGGAGCGCAGAUAACUGCAGGUAGGUCGCCCAGUGAUGUUGGGCGAAUAUUGGUCA [Esinabige] | 124 nM
22 | AAAUAGAUCAGUCACCCAGUGAUGUUGGAAGGAGCGUGCGAAAGCACAGGUAGGUCGCCAAAAUAAAAUUGGCUGAUCAAAAUAA | 361 nM

same assay, conditions: Eterna round: R107; input ligand: theophylline 20 uM

Row | Sequence | apparent KD of K4 kissing-loop reporter
23 | CUGGUUCAGUGAUGUUGGAAGGUUUAGGUGAAGGAUAUAUUGCAUAAUAGAAGGUCACGGCCAUGCAAUUAUUAACGUAGCCUGU [theeternabot_exclusion_KL_FMN_A_3] | 126 nM
24 | GAGCCAGAAGUUGCUGCGGGUUUCAGAGAUACCAGCCGUAUUGUAGGCCCUUGGCAGCUCGAGUGAUGUUCGAGCCGCUUCUAGC [Inma] | 115 nM
25 | UGUAAGCGCGUAGAUACCAGCAAACAAAGAGUGAUGUUCAGAUUAAGGAAAAGAAAGUAAUGCCCUUGGCAGCUAAUCAUAAGCG [Theophylline B Exclusion; Euphoria Solution] | 497 nM
26 | AUGUAUGAAUUAGGAUAUCGUUAGCCUUUCAUAUAUAUGAUAAAUGGAUAUGUCGUAGUGAUGUUACGAGAAGGAGUGUGGAGUA [KL-XFMN-B8] | 64.6 nM
27 | AAGUCACAGGCAGGAUAUGCUUAGUAUUAAGGCCAUAUAUACGUAUAGAGUGAUGUUUUGUACCAGGCAGAAGGGCUACAUCCGU [FMN B Excl V4 (+U)] | 645 nM
28 | GCAGUGAUGUUGCAACCGCGUACGAUGCCUCGAGGACCGGUACGGCCGCCACUCGUCCUGGUUCAGGAGCUACAGACAUAGCUCA [theeternabot_sameState_KL_Trp_A_2] | 408 nM
29 | GUGCAAAGCACCGGCACGAGCAGCCUAAAGGAGGAUAUGACGAAAGUCAGAAGGUCUAGUGAUGUUAGGCCUUGCUUGAGUCGAA [Omei KL FMN A Exc B v3] | 405 nM
30 | AAAUUUUCAAGUGAUACCAGACAUCUCUAUUACAUUAAUAUAGCUAAGUGAUGUUUAGCAGUCCCUUGGCAGCACAAUUUAAUUA [JR_SSTheophyB_Sub013] | 337 nM
31 | GUGCGGCUAGUGAUGUUGGUUGUGUGGGAAGGAGCGCAGAUACAUGCAGGUAGGUCGCCCACACCUCUGAAAGGAGGCUAAUUCA [KL-SSArg-A15] | 325 nM
32 | UGGAUAUAGUGAUGUUAUAUAGAGAUGGAUACCAGUUUAGAGAAGAGCCCUUGGCAGCCGAAAGAAGUAUCAUUAGAGAAGAAUG [ExTheophyl.Al] | 212 nM
33 | UUUAUAAGGUCGGCCGCCACUGGAUUUAUGUUUGUUUCGUCUGGAUCAAAGUGAUGUUUUGAGUCCAGGACCGGGACAUUUGUUA [whbob_Ex_Tryp_B_w39] | 75.6 nM
34 | CCGACUGCAGGAAGGAGCGGCGGUUGGAGUGAUGUUCCGGGUAGUGAUGUUACCAAACUCCGCCAGGUAGGUCGCCUGUUGCUCG [Same State Arginine B GF10] | 179 nM
35 | GAUUUAGAGGCGGCCGCCACUAGUGAUGUUAGUGAUGUUUGAUACUGAAUAUAUCGGCGUGUAGAUAGGACCGGGCCAGAUGGAG [zwqqmullin] | 211 nM
36 | GUUACGCAUGGAAGGAGCGCACUCCGGUUGAUCGACACAGUGAUGUUGUGGUUCAUUCGAAUGCAGGUAGGUCGCCAUGUGUAAC [Ex Arginine B K4 15] | 886 nM
37 | AAGCAGUCACUCAAAGCCAUCGAAGAUGGUCGAGGACCGGUACGGCCGCCACUCGGAGUGAUGUUCCGAAGACUGCAAAAUAAAA | 411 nM
38 | GGGUGGCAGGCGGCCGCCACUCUGAGGGUCCACAGUGAUGUUGUGGGCGCGUAAGCGUCUUCAUAGAGGACCGGGUUUGUUGUUC [Same State Tryptophan B GF 24] | 403 nM

Row | Sequence | apparent KD of K4 kissing-loop reporter
39 | UAGUGAAUAGAAGGAUAUUGAUAUGAAAGAUGCAGUGAUGUUGCCCGUAGCAGUCAGUAAUACGUGCAAGAAGGUCUGUGCGCGA [theeternabot_exclusion_KL_FMN_B_3] | 127 nM
40 | CCAUUCAUCAGAAGGAGCGUCAAGUGAUGCUAUCCAGUGAUGUUGGAUAGCACGGAACAGUGACAGGUAGGUCGCUGAUGAGAGC [Arg B SS t8] | 95.7 nM
41 | GCUAUGGUAGGAAGGAGCGCGGACGAUAUUUAUCGAGUGAUGUUCGAAUAAUUAAAUAAAACGCAGGUAGGUCGCCUACUAUAGC [Arginine B K4 27] | 102 nM
42 | UGUACCGAGACAGGAUAUGUCGUCGAAAGACGAAAUGGAGUGAUGUUCCUUAAACUGCGAAAGCAGACAGAAGGGUCUUGGUACU [FmnBS 29 A10+U76] | 165 nM
43 | UUUAUUAAGACGGCCGCCACUGAUUCAGAGUGAUGUUCUGAUAUUUUUUUAUAUAAUAAUAACAGCAGGACCGGGUCAAUUAUUA [JR_SSTryptoB_Sub013] | 272 nM
44 | GAGGCCAAACGGAGUGAUGUUUCGUAUGAUACCAGCAGCGAAAGCUGCCCUUGGCAGCAUGCCACGGCCUCGGCAGGAAACUGCC | 371 nM
45 | UACGCUGCCUGAGGAUAUAGAAACGAGUGAUGUUCGUGGAUAAGAGCCAGUGAUGUUGGGUUAUUUCUAGAAGGCAGGUAAAGUA [Exclusion FMN B GF6] | 95.8 nM
46 | AACCGAGGUAAUCCACAAUGAUUAGAAGAUACCAGAUAUAUAAAUAUCCCUUGGCAGCUUUGAAUGAGUGAUGUUCAUUUGUCAU [KL-SSTheo-A11] | 214 nM
47 | GUGACACGUGAUGAUACCAGUCCACGGAAGUUCCUUAGUGAUGUUAACCUUGCUUUUUCUGACCCUUGGCAGCAUUAGUUGAGAA [theeternabot_sameState_KL_Theo_B_42] | 304 nM
48 | AGUAUUGAGUCGGCCGCCACUGGUUUAAUGAGUGUCAAUUCUGGAUCAAAGUGAUGUUUUGGAGCUAGGACCGGGACCAUUGUUA [#07 K4 Tryptophan B Exclusion] | 360 nM
49 | UUGGCCCGGCCGGAAGGCCGGGCCUGCGAGCGAGGACCGGUACGGCCGCCACUCGGCGCAGUGAUGUUGCGUGGCCGCAAGGCCG [#2 Exclusion - Tryptophan A Attempt #1 (HarryS)] | 581 nM
50 | AAGAGCUAGGCGGCCGCCACUAGUUGUGAACACAUACAAGCCAGUGAUGUUGGUAUGGUGGACGGUAGGACCGGGCCUAGCUGAA [Exclusion - Tryptophan B (Freestyle 16)] | 259 nM
51 | CAGAUCACAGAGUGAUGUUCUGUGUCCGAAGGAGCGCGCUUCGGCGCAGGUAGGUCGCGGAUACAGUUGACGUACCAUCUAGACA [Arg A Ex t3c] | 485 nM
52 | UCGACAGUGAACGAUACCAGCGUCACGUGGCUGGUGGUCACAUGAGUGAUGUUCAUGUAACGCCCUUGGCAGCGUGCACGUAUCA [KL-XTheo-B8] | 125 nM
53 | ACACUAUCGUCAUAGACGGUAGUGAAAAGUGAGGAUAUGAGUGAUGUUAGAAGGCACUAAGACUGUAUCGAAUAGAUACAGUCAA [FmnA 4 #K4BetweenAptamer #OpenEnded] | 292 nM
54 | GUCCACACUGCAGGAUAUGGAGGAAUAGCGAGGGAGUGUGGAAGCACACCUCUGGCAGUGAUGUUGCCAGAAGGGCGGUGCGGCG [Cemaorar] | 69 nM
